Target: T1, ELIC 7′C pore mutant (L238C in the cysteine-free background C300S/C313S) (Erwinia (as in the name Erwinia …))
T1 chain: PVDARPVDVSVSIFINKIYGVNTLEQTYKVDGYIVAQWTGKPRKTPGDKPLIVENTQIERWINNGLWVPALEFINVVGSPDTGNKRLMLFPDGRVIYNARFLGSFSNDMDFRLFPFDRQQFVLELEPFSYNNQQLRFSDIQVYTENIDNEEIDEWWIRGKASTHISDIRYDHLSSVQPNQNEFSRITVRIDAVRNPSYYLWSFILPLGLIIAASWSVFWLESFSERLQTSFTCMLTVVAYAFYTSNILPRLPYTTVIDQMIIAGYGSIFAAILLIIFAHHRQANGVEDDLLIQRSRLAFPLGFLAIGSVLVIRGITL
Test: crystal structure

B1: nanobody 72 (VHH)
VHH: QVQLQESGGGLVQAGGSLRLSCAASGRIFSTNVMGWFRQAPGKEREFVATVGRIGGSTVYADFVKGRFTLSRDNAKNMVYLQMNSLKPEDTAVYYCGARIGGSDRLAPENYGYWGQGTQVTVSS
In the case of B1, the “stoichiometry N” value is reported as 5 Nb72 per ELIC pentamer.

Source: paper PMC8423587 (Nature chemical biology, 2019)
